How the values were obtained:
[1] = tested on: Pseudomonas aeruginosa; assay: Crystal violet biofilm assay; type: cell-based; conditions: 24 h incubation, protein added from the beginning
Procedure: Crystal violet assay. Pseudomonas aeruginosa grown overnight in LB were inoculated (1.5%, v/v) and grown for 24 h at 37° C. in 96-well round bottom plates in minimal medium (100 μL) with arginine (40 mM) as the sole carbon source. PodA was added with cells simultaneously and was present during growth and biofilm development. Planktonic cells were removed and attached cells were quantified with crystal violet staining (125 μL. 0.1% w/v), followed by washes with water and de-staining with an acetic acid (30%, v/v) mixture in water. Crystal violet was measured using a SpectraMax® M3 Microplate Reader (Molecular Devices) at an absorbance of 550 nm. Details of procedure were published previously (28)[43].

[2] = tested on: P. aeruginosa strain PA14; assay: PodA and tobramycin liquid (planktonic) synergy experiments; type: cell-based, Pseudomonas aeruginosa; conditions: LB; PodA10 5 μM; compared to individual antibiotic controls
Procedure: Pseudomonas aeruginosa PodA and tobramycin liquid synergy experiments. For planktonic synergy experiments, starter cultures were grown 24 h at 37° C. shaking in LB. Stationary phase cultures (usually between OD500 4-6) were aliquoted (100 μL) into 96-well clear bottom flat well plates (VWR). Antibiotics and PodA were diluted into stock concentrations to pipette 5 μL antibiotic and 2 μL PodA per well. Antibiotics were diluted into water and PodA was diluted into 50 mM HEPES (pH 7.5). Plates were incubated in a humidity Tupperware chamber lined with wet paper towel at 37° C. for 10 h. After incubation, wells were pipetted to resuspend, and each well was diluted 1:10 into fresh LB. From that mixture, 10 μL of diluted cells were pipetted into 90 μL fresh LB in 96-well flat bottom plates. Mineral Oil, light (65 μL undiluted, Sigma-Aldrich) was pipetted onto top of cultures to prevent dehydration and allow for oxygen diffusion. Microtiter plates were incubated at 37° C. inside a temperature-controlled chamber of a BioTek Synergy 4 plate reader. […] Cells from each 10 μL drips dilution were counted if colonies were between 10-100.
PodA10 and tobramycin cell treatments (same samples from FIG. 8) were diluted in series and dilutions were plated onto LB agar. Cells were counted if a dilution contained 10-100 colonies. […]

B1: PodA10: Designed PodA41-162 variant: A53N, I73T, A87V, M99V, A129T; SEQ ID NO: 4 (protein)
chain: MVTMTLDVKNDQVNKHDFGKPGMDVGDMDIFSDTLSVDGKQVGYDGGVCFFTNVTPDNPVTYCELTIHLDAGEIFARSLTPATLAPFTMTITGGTGEYANSKGELTVSGVATPDEKYELKLTK
[1]
  biofilm attachment (crystal violet): biofilm attachment defect that was comparable to that achieved by WT PodA41-162
[2]
  cell viability (CFUs): did not increase cell death
